Measured values taken from PMC6200986.

Test system: YlxR (Bacillus subtilis 168)
Test: EMSA
Settings: 10 mM Tris-HCl pH 8.0, 100 mM KCl, 10 mM MgCl2, 1 mM DTT, 10% glycerol, 12 ul; 1% agarose gel in Tris-acetate-EDTA, loaded immediately after protein addition …

pET28b(+) supercoiled was tested, and the Kd was 100 nM.
